According to patent US20110144007A1 (IPSEN PHARMA S A S, published 2011):
Residue numbers refer to the chain shown, from its start. Non-standard residues stand in square brackets, D forms with d. No end group written: not given here. *: point of attachment. Psu = N-propylsuccinimide on Cys S (Cys alkylated with N-propylmaleimide), CCCN1C(=O)CC(*)C1=O; Myristoyl = CCCCCCCCCCCCCC(=O)*; Ac6c = NC1(C(=O)O)CCCCC1; Nle = CCCC[C@H](N)C(=O)O; Orn = NCCC[C@H](N)C(=O)O; Ac5c = NC1(C(=O)O)CCCC1; Aib = CC(C)(N)C(=O)O

T1: human recombinant GIP receptor (human, UniProt P48546 22-466)
T1 construct: whole, on cells; Assayed as washed membrane preparations of CHO-K1 clonal cells expressing the receptor; also called hGIP receptor
T1 sequence (looked up): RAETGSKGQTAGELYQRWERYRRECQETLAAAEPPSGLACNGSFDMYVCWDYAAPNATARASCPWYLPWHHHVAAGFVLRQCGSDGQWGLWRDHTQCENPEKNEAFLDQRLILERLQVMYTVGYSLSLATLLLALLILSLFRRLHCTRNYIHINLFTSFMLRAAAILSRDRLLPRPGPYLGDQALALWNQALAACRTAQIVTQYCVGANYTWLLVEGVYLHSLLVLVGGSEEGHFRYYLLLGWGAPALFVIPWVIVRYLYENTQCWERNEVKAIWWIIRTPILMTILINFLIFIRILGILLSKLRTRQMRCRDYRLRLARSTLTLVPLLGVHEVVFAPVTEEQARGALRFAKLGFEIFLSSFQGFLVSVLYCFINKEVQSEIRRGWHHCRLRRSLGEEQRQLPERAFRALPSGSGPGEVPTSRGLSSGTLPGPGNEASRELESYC

B1: [A5c^11, Lys^43(N-C(O)-(CH2)10-CH3)]hGIP(1-43)-OH (peptide)
peptide: YAEGTFISDYXIAMDKIHQQDFVNWLLAQKGKKNDWKHNITQK
modifications: A5c at 11; Lys(N-C(O)-(CH2)10-CH3) at 43; C-terminal free acid
notes: Synthetic acylated analogue of human GIP
B2: (A5c^11, Nle^14, His^43)hGIP(1-43)-OH (peptide)
peptide: B1 peptide with M14X, K43H
modifications: A5c at 11; Nle at 14; C-terminal free acid
notes: Synthetic analogue of human GIP with an added His at position 43
B3: (Aib^13, Asp^43)hGIP(1-43)-NH2 (peptide)
peptide: B1 peptide with X11S, A13X, K43D
modifications: Aib (alpha-aminoisobutyric acid) at 13; C-terminal amide
notes: Synthetic analogue of human GIP with an added Asp at position 43
B4: [A5c^11, Orn^32(N-C(O)-(CH2)14-CH3), His^43]hGIP(1-43)-OH (peptide)
peptide: B1 peptide with K32X, K43H
modifications: A5c at 11; Orn(N-C(O)-(CH2)14-CH3) at 32; C-terminal free acid
notes: as for B1
B5: [A5c^11,41, Cys^43(succinimide-N-30K PEG)]hGIP(1-43)-NH2 (peptide)
peptide: B1 peptide with T41X, K43C
modifications: A5c at 11 and 41; Cys(succinimide-N-30K PEG) at 43; C-terminal amide
notes: Synthetic PEGylated analogue of human GIP
B6: [A5c^11, Lys^43(N-C(O)-(CH2)14-CH3)]hGIP(1-43)-OH (peptide)
peptide: B1 peptide
modifications: A5c at 11; Lys(N-C(O)-(CH2)14-CH3) at 43; C-terminal free acid
notes: as for B1
B7: (A5c^11, 14, His^43)hGIP(1-43)-OH (peptide)
peptide: B1 peptide with M14X, K43H
modifications: A5c at 11 and 14; C-terminal free acid
notes: as for B2
B8: [A5c^11, Orn^33(N-C(O)-(CH2)10-CH3), His^43]hGIP(1-43)-OH (peptide)
peptide: B1 peptide with K33X, K43H
modifications: A5c at 11; Orn(N-C(O)-(CH2)10-CH3) at 33; C-terminal free acid
notes: Synthetic acylated analogue of human GIP with an added His at position 43
B9: [A5c^11,41, Cys^43(succinimide-N-20K PEG)]hGIP(1-43)-NH2 (peptide)
peptide: B1 peptide with T41X, K43C
modifications: A5c at 11 and 41; Cys(succinimide-N-20K PEG) at 43; C-terminal amide
notes: as for B5
B10: [A5c^11, Orn^32(N-C(O)-(CH2)10-CH3), His^43]hGIP(1-43)-OH (peptide)
peptide: B1 peptide with K32X, K43H
modifications: A5c at 11; Orn(N-C(O)-(CH2)10-CH3) at 32; C-terminal free acid
notes: as for B8
B11: (A5c^11, 41, Cys^43)hGIP(1-43)-NH2 (peptide)
peptide: B1 peptide with T41X, K43C
modifications: A5c at 11 and 41; C-terminal amide
notes: Synthetic analogue of human GIP with an added Cys at position 43
B12: [A5c^11, Orn^33(N-C(O)-(CH2)14-CH3), His^43]hGIP(1-43)-OH (peptide)
peptide: B1 peptide with K33X, K43H
modifications: A5c at 11; Orn(N-C(O)-(CH2)14-CH3) at 33; C-terminal free acid
notes: as for B1
B13: (A5c^11, Thr^43)hGIP(1-43)-OH (peptide)
peptide: B1 peptide with K43T
modifications: A5c at 11; C-terminal free acid
notes: Synthetic analogue of human GIP with an added Thr at position 43
B14: (A5c^11, His^43)hGIP(1-43)-OH (peptide)
peptide: B1 peptide with K43H
modifications: A5c at 11; C-terminal free acid
notes: as for B2
B15: (A5c^11, Asn^43)hGIP(1-43)-OH (peptide)
peptide: B1 peptide with K43N
modifications: A5c at 11; C-terminal free acid
notes: Synthetic analogue of human GIP with an added Asn at position 43
B16: (A5c^11, Ala^43)hGIP(1-43)-OH (peptide)
peptide: B1 peptide with K43A
modifications: A5c at 11; C-terminal free acid
notes: Synthetic analogue of human GIP with an added Ala at position 43
B17: (Aib^13, Trp^43)hGIP(1-43)-OH (peptide)
peptide: B1 peptide with X11S, A13X, K43W
modifications: Aib at 13; C-terminal free acid
notes: Synthetic analogue of human GIP with an added Trp at position 43
B18: (A5c^11, 14)hGIP(1-30)-NH2 (peptide)
peptide: YAEGTFISDYXIAXDKIHQQDFVNWLLAQK
modifications: A5c at 11 and 14; C-terminal amide
notes: Synthetic truncated analogue of human GIP
B19: (A6c^11, 14, 41)hGIP(1-42)-OH (peptide)
peptide: YAEGTFISDYXIAXDKIHQQDFVNWLLAQKGKKNDWKHNIXQ
modifications: A6c (1-amino-1-cyclohexanecarboxylic acid) at 11, 14 and 41; C-terminal free acid
notes: Synthetic analogue of human GIP
B20: (A5c^11, 41, Cys^33)hGIP(1-42)-NH2 (peptide)
peptide: B19 peptide with X14M, K33C
modifications: A5c at 11 and 41; C-terminal amide
notes: Synthetic analogue of human GIP with Cys at position 33
B21: (A5c^11, 41, Cys^32)hGIP(1-42)-NH2 (peptide)
peptide: B19 peptide with X14M, K32C
modifications: A5c at 11 and 41; C-terminal amide
notes: Synthetic analogue of human GIP with Cys at position 32
B22: [A5c^11,41, Cys^32(succinimide-N-20K PEG)]hGIP(1-42)-NH2 (peptide)
peptide: B19 peptide with X14M, K32C
modifications: A5c at 11 and 41; Cys(succinimide-N-20K PEG) at 32; C-terminal amide
notes: as for B5
B23: (A5c^11, His^31)hGIP(1-31)-NH2 (peptide)
peptide: YAEGTFISDYXIAMDKIHQQDFVNWLLAQKH
modifications: A5c at 11; C-terminal amide
notes: Synthetic truncated analogue of human GIP with His at position 31
B24: (Aib^13, Nle^14, Phe^43)hGIP(1-43)-OH (peptide)
peptide: YAEGTFISDYSI[Aib][Nle]DKIHQQDFVNWLLAQKGKKNDWKHNITQF-OH
notes: Synthetic analogue of human GIP with an added Phe at position 43
B25: (A5c^11)hGIP(1-30)-NH2 (peptide)
peptide: B18 peptide with X14M
modifications: A5c at 11; C-terminal amide
notes: as for B18

Target: T1, human recombinant GIP receptor
Assay: displacement of [125I]GIP from membranes of CHO-K1 cells expressing human recombinant GIP receptor

Binder | Ki [nM]
B1 | 0.83
B2 | 0.72
B3 | 0.6
B4 | 41.6
B5 | 0.69
B6 | 1.25
B7 | 0.59
B8 | 9.1
B9 | 0.7
YAEGTFISDYXIAMDKIHQQDFVNWLLAQKGKKNDWKHNITQX (A5c at 11; Ado (12-aminododecanoic acid) at 43; C-terminal free acid, Synthetic analogue of human GIP) [(A5c^11, Ado^43)hGIP(1-43)-OH] | 31.6
B10 | 5.3
B11 | 0.51
B12 | 26.4
B13 | 3.13
B14 | 0.54
B15 | 0.21
B16 | 3.43
B17 | 2.76

Binder | Ki [nM]
B18 | 0.78
YAEGTFISDYSI[Aib][Nle]DKIHQQDFVNWLLAQKGKKNDWKHN[Ac5c]TQ-OH (Synthetic analogue of human GIP) [(Aib^13, Nle^14, A5c^40)hGIP(1-42)-OH] | 0.23
B19 | 4.72
YAEGTFISDYSIXMDKIHQQDFVNWLLAQKGKKNDWKHNXTQ (Aib at 13; A5c at 40; C-terminal free acid, Synthetic analogue of human GIP) [(Aib^13, A5c^40)hGIP(1-42)-OH] | 5.74
YAEGTFISDYXIAMDKIHQQDFVNWLLAQKGKKNDWKHNXTQ (A5c at 11 and 40; C-terminal free acid, Synthetic analogue of human GIP) [(A5c^11, 40)hGIP(1-42)-OH] | 0.62
YAEGTFISDYXIAXDKIHQQDFVNWLLAQKGKKNDWKHNXTQ (A6c at 11, 14 and 40; C-terminal free acid, Synthetic analogue of human GIP) [(A6c^11, 14, 40)hGIP(1-42)-OH] | 1.3
YAEGTFISDYXIAMDKIHQQDFVNWLLAQKGKKNDWKHNIXQ (A5c (1-amino-1-cyclopentanecarboxylic acid) at 11 and 41; C-terminal free acid, Synthetic analogue of human GIP) [(A5c^11, 41)hGIP(1-42)-OH] | 0.12
B20 | 1.05
B21 | 0.9
B22 | 0.7
B23 | 0.44
YAEGTF[Ac6c]SDYSIAMDKIHQQDFVNWLLAQKGKKNDWKHNITC(Psu)-OH (Synthetic analogue of human GIP) [[A6c^7, Cys(Psu)^42]hGIP(1-42)-OH] | 30.4
B24 | 3.15
YAEGTF[Ac6c]SDYSIAMDKIHQQDFVNWLLAQK[Orn](Myristoyl)KKNDWKHNITQ-OH (Synthetic analogue of human GIP) [[A6c^7, Orn^31(N-C(O)-(CH2)12-CH3)]hGIP(1-42)-OH] | 18.1
YAEGTF[Ac6c]SDYSIAMDKIHQQDFVNWLLAQKGKKN[Orn](Myristoyl)WKHNITQ-OH (Synthetic analogue of human GIP) [[A6c^7, Orn^35(N-C(O)-(CH2)12-CH3)]hGIP(1-42)-OH] | 10.3
YAEGTF[Ac6c]SDYSIA[Nle]DKIHQQDFVNWLLAQKGKKNDWKHNI[Ac6c]Q-OH (Synthetic analogue of human GIP) [(A6c^7, 41, Nle^14)hGIP(1-42)-OH] | 26.1
YAEGTF[Ac6c]SDYSIAMDKIHQQDFVNWLLAQKGKKNDWKHNI[Ac6c]Q-OH (Synthetic analogue of human GIP) [(A6c^7, 41)hGIP(1-42)-OH] | 8.79
B25 | 0.82
